To fix the notation:
B1: CIgE4A1A1(GS)1 (Fc fusion)
chain 1: GPPCPPCPAPEFLGGPSVFLFPPKPKDTLMISRTPEVTCVVVDVSQEDPEVQFNWYVDGVEVHNAKTKPREEQFNSTYRVVSVLTVLHQDWLNGKEYKCKVSNKGLPSSIEKTISKAKGQPREPQVYTLPPCQEEMTKNQVSLWCLVKGFYPSDIAVEWESNGQPENNYKTTPPVLDSDGSFFLYSRLTVDKSRWQEGNVFSCSVMHEALHNHYTQKSLSLSLGKGGGGSEVQLLESGGGLVQPGGSLRLSCAASGFTFGNYDMAWVRQAPGKRPEWVSSIDTGGDITHYADSVKGRFTISRDNAKNTLYLQMNSLRPEDTAVYWCATDEEYALGPNEFDYYGQGTLVTVSS
chain 2: B1 chain 1 with Y127C, C132S, W144S, L146A, Y185V
notes: label printed with IgE4/(GS); also called CIgG4A1A1(G4S)1
B2: CIgE4A1A1(GS3) (Fc fusion)
chain 1: GPPCPPCPAPEFLGGPSVFLFPPKPKDTLMISRTPEVTCVVVDVSQEDPEVQFNWYVDGVEVHNAKTKPREEQFNSTYRVVSVLTVLHQDWLNGKEYKCKVSNKGLPSSIEKTISKAKGQPREPQVYTLPPCQEEMTKNQVSLWCLVKGFYPSDIAVEWESNGQPENNYKTTPPVLDSDGSFFLYSRLTVDKSRWQEGNVFSCSVMHEALHNHYTQKSLSLSLGKGGGGSGGGGSGGGGSEVQLLESGGGLVQPGGSLRLSCAASGFTFGNYDMAWVRQAPGKRPEWVSSIDTGGDITHYADSVKGRFTISRDNAKNTLYLQMNSLRPEDTAVYWCATDEEYALGPNEFDYYGQGTLVTVSS
chain 2: B2 chain 1 with Y127C, C132S, W144S, L146A, Y185V
notes: also called CIgG4A1A1(G4S)3
B3: CIgE4A1A1(GS)2 (Fc fusion)
chain 1: GPPCPPCPAPEFLGGPSVFLFPPKPKDTLMISRTPEVTCVVVDVSQEDPEVQFNWYVDGVEVHNAKTKPREEQFNSTYRVVSVLTVLHQDWLNGKEYKCKVSNKGLPSSIEKTISKAKGQPREPQVYTLPPCQEEMTKNQVSLWCLVKGFYPSDIAVEWESNGQPENNYKTTPPVLDSDGSFFLYSRLTVDKSRWQEGNVFSCSVMHEALHNHYTQKSLSLSLGKGGGGSGGGGSEVQLLESGGGLVQPGGSLRLSCAASGFTFGNYDMAWVRQAPGKRPEWVSSIDTGGDITHYADSVKGRFTISRDNAKNTLYLQMNSLRPEDTAVYWCATDEEYALGPNEFDYYGQGTLVTVSS
chain 2: B3 chain 1 with Y127C, C132S, W144S, L146A, Y185V
notes: also called CIgG4A1A1(G4S)2
B4: NIgG4A1A1(G4S)2 (Fc fusion)
chain 1: EVQLLESGGGLVQPGGSLRLSCAASGFTFGNYDMAWVRQAPGKRPEWVSSIDTGGDITHYADSVKGRFTISRDNAKNTLYLQMNSLRPEDTAVYWCATDEEYALGPNEFDYYGQGTLVTVSSGGGGSGGGGSGPPCPPCPAPEFLGGPSVFLFPPKPKDTLMISRTPEVTCVVVDVSQEDPEVQFNWYVDGVEVHNAKTKPREEQFNSTYRVVSVLTVLHQDWLNGKEYKCKVSNKGLPSSIEKTISKAKGQPREPQVYTLPPCQEEMTKNQVSLWCLVKGFYPSDIAVEWESNGQPENNYKTTPPVLDSDGSFFLYSRLTVDKSRWQEGNVFSCSVMHEALHNHYTQKSLSLSLGK
chain 2: B4 chain 1 with Y259C, C264S, W276S, L278A, Y317V
B5: NIgG4A1A1(G4S)3 (Fc fusion)
chain 1: EVQLLESGGGLVQPGGSLRLSCAASGFTFGNYDMAWVRQAPGKRPEWVSSIDTGGDITHYADSVKGRFTISRDNAKNTLYLQMNSLRPEDTAVYWCATDEEYALGPNEFDYYGQGTLVTVSSGGGGSGGGGSGGGGSGPPCPPCPAPEFLGGPSVFLFPPKPKDTLMISRTPEVTCVVVDVSQEDPEVQFNWYVDGVEVHNAKTKPREEQFNSTYRVVSVLTVLHQDWLNGKEYKCKVSNKGLPSSIEKTISKAKGQPREPQVYTLPPCQEEMTKNQVSLWCLVKGFYPSDIAVEWESNGQPENNYKTTPPVLDSDGSFFLYSRLTVDKSRWQEGNVFSCSVMHEALHNHYTQKSLSLSLGK
chain 2: B5 chain 1 with Y264C, C269S, W281S, L283A, Y322V
B6: CIgG4A1A1(RS) (Fc fusion)
chain 1: GPPCPPCPAPEFLGGPSVFLFPPKPKDTLMISRTPEVTCVVVDVSQEDPEVQFNWYVDGVEVHNAKTKPREEQFNSTYRVVSVLTVLHQDWLNGKEYKCKVSNKGLPSSIEKTISKAKGQPREPQVYTLPPCQEEMTKNQVSLWCLVKGFYPSDIAVEWESNGQPENNYKTTPPVLDSDGSFFLYSRLTVDKSRWQEGNVFSCSVMHEALHNHYTQKSLSLSLGKRSEVQLLESGGGLVQPGGSLRLSCAASGFTFGNYDMAWVRQAPGKRPEWVSSIDTGGDITHYADSVKGRFTISRDNAKNTLYLQMNSLRPEDTAVYWCATDEEYALGPNEFDYYGQGTLVTVSS
chain 2: B6 chain 1 with Y127C, C132S, W144S, L146A, Y185V

Where a chain is given by its changes, count along the chain named. Numbers in names are those of the source.

T1 sequence (P01854 other isoform, or with tags, fused parts or gaps): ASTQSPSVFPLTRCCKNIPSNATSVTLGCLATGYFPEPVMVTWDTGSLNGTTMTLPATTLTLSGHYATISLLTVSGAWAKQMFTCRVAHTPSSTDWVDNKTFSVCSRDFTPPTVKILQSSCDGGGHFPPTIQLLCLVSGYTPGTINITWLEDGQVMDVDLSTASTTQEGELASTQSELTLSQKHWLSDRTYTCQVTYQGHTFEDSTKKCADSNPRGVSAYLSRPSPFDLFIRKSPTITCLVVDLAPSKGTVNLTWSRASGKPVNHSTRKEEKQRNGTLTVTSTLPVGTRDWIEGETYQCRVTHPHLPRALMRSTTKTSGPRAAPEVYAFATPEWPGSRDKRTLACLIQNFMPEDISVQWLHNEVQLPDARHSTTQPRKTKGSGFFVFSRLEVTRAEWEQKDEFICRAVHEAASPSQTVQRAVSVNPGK

The assay has as its target T1, recombinant human IgE (human, UniProt P01854-1 1-428).
T1 construct: made in-house (ALK); preloaded on immobilised FcεRIα in the displacement ELISA
In words: IgE-FcεRIα displacement ELISA. The protocol: The displacement effect was tested using IgE-FcεRIα displacement ELISA assay. Maxisorp® microtiter plates (Thermo Scientific Nunc, Roskilde, Denmark) were coated with 100 μl streptavidin, 5 μg/ml (Thermo Scientific, Waltham, MA) for 18 h at 4° C. followed by wash with 300 μl washing buffer (PBS containing 0.05% Tween 20) using an AquaMax® 2000 plate washer (Molecular Devices, San Jose, CA). Remaining binding sites were blocked with 250 μl blocking buffer (PBS containing 2% BSA) for 2 h and washed with 300 μl washing buffer. Subsequently, the bound streptavidin was loaded with 100 μl (0.1 μg/ml) recombinant human FcεRIα (site specific biotinylated via avi-tag, made in-house, ALK, Hørsholm, Denmark) for 1 h and plates washed twice with 300 μl washing buffer. The bound receptor was then loaded with 100 μl recombinant human IgE (made in-house, ALK, Hørsholm, Denmark), 13 ng/ml (pre-titrated to reach an OD₄₅₀ signal in the range of 1.5-2.5 in the absence of displacement components) for 1h followed by three washes of 300 μl washing buffer.
displacement step: 100 μl sdAbs diluted in concentration series (pM-μM range) or blocking buffer only as a non-displacement negative control, were added to the ELISA wells and incubated for 1 h. Any IgE, displaced from the receptor by a sdAb was washed away by three washes of 300 μl washing buffer.
The ability of the various sdAbs to displace IgE from the receptor (FcεRIα) was evaluated by use of the ELISA based IgE-FcεRIα displacement assay. The percent displacement effect was calculated as the relative reduction in signal compared to the control with no sdAb added. The EC₅₀ values and the maximal effects were determined (table 15).
For orientation: ELISA stands for enzyme-linked immunosorbent assay.
As to B1, the Max effect is about 40%.

As usually defined, the EC50 is the midpoint of the concentration-response curve. Regarding B2, the EC50 was found to be 36 nM and the Max effect was about 85%.

Consider B3, for which the EC50 worked out at 145 nM and the Max effect was about 70%.

Take B4: the half-maximal effective concentration (EC50) stood at 230 nM.

Regarding B5, the concentration for a half-maximal effect (EC50) is 310 nM.

B6: the Max effect is under 20%.

(Values after patent US20250171562A1 (ALK ABELL, published 2025).)
